From a protein production outcome set (Wang et al. 2014)

Assay: label from the status in PepcDB records

| Sequence | protein production |
| --- | --- |
| MKKSILFTFVLCLLSQWSVAQAPKWVEKAKRSVFSIVTYDKDDKIQNTGNGFFVTEDGVALSDYSLFKGAQRAVIINSEGEKMPVECILGANDMYDIIKFRVGITVKKVPALQVAALAPAVGAEVYLLPYSTQKGGNVTRGKVKKVDNIGGDKYHYYTLDMVLKDKMVSCPVTTADGKVFGVAQKSSGQDTASISYAAGAAFAMSQNISALALSDPALNAIGIKKGLPEDEDQALVYLFIASTQSTPEAYAIALDDFIKTFPNSADGYLRRAGNYVFADKDENHMDKAAADLEHALKVAQKKDDTYYNIAKLIYNYQLSKPETVYKDWTYDQALENVRSAIAIQSLPVYQQLEGDILFAKQDYAGAFASYDKVNQTELASPASFFSAAKAKELSKAAPEEVIALLDSCIARCQTPITSDLAPYLLERAQMYMNVEKYRLALADYDAYFNAVKGSVNDLFYYYREQAAFKAKQFQRALDDIAKAIELNPEDLTYRAEQAVVNLRVGRYEEAEKVLKDALAIDPKYAEGYRLLGICQIQLKQEKAACASFAKAKELGDPNVDELIKKHCK | failed |
| MKKSLTLVLVVVSILIFSQTFKLEKVLGFSDISSLAFKDGYLLLGTGNGEIIVYKDGSYYRAFKVHDNRVNEVTFENGFIVSASDDKTVGVTNLETGEIKLLKGHMKGVSSVAVAGSKILSASFDGTVRVWSFPDGGEISSQKLGPSVVQIAAHENRYVVGLANGLALIRDLSNQSFSIPLKAHPEGIKKIVFSENGQLIATCGGNTVKVWNASNGNLVLQYDHVITVNDVAFLENDSLIFVADDYKAVVLNIQKNEVVKSIDAHNNFVLFVSSDDGSIATYGMDKTVKVWNANLELQYSLYGHQLSVNTVALSSDRKFIVSGSDDREILIWNTEKGIAEHRIKALSGVRKLLTVENNIISCLDSNQLKIYNLENGKLVKRIKVGTTSTMDIALQNDRMAVGFYDGSVALFRYPSFEEIWRKDTEHEMIQTIDMNNKFIAFGVSYSDPKDKIGYVEVLSADTGERVFLLEGHRGNVNAVKFAGDFLVSGGEDGKVILWNLDTGSKVKEIYLNEPVSSLFVDEKELFVGTWNGSIKIFAFPDLTLKTSLKASDQKIGHLIKVGNHLVVPCGDGKIRILVEK | failed |
| MKKTFEKVYHLKLSIKGITPQIWRRIQVPENYTFLDLHKAIQAVMDWEDYHLHEFEMVNPKTGMLDKIGAEGDDFDAFGGPLVSEKKAKLSDYFTLENKEALYTYDFGDNWQVKVRLEKILPRKEGVEYPICTAGKRAAVPEDSGGVWGYEEMLEVLKDSEHEEYEDTVLWLGDDFDPEYFDPKDVSF | not failed |
| MKKVFIPINTKIPVERQFPNRVPIWGNYEFIISTKEPEQEYDYVVVLDDIEYSLRLMCCKQNICLFTGEPPYVKLYPRKYLNQFGHVYTCQSSVLKRDNACLSYPALPWMLYYNFYNDKQKEELLIDYDFLKNRPTLQRKNKICLFTSNKKISKGHIERIKFALKLQEEMPDLIDIYGSGFTNVDYKYEVMVQYKYAIVIENCSYPYYWTEKLADTFLSGCYPIYFGDPHIGDFFSKEEMAVIDIRNFDESKQTIKKIIDNNVYEKQYENICHARDKILDKYNMFSLISSTLDSIPAKLDKEKLLLSPMRLSVFDRIRNRIYRLFYLEHHHHHH | failed |
| MKKVLVGLLAIMVMIIASGYTYYKMNYGGESYYVQILVNGEREETTADDHTPMVIYHYKLDSFNSKGDKKLVKFMASHNLRNQAYLELTYNKHKGVTNWNEVQEKEIPKPALKELQSLENLEHHHHHH | failed |
| MKKVTIVGGNGTVGRVLAGGLAGEGYEVTVLDLKEPDDKQAVRFIRVDATDYNEVVKSIPAQTNALINLLAVKPSGDLLDRQEFAKMTDIFFKATYTILRAAAELGVPKVVFASSNHVTDVYEKGGDSLLGRQINTNDYPQSKSLYGLLKLASENLGYLFSHQLDAKVSVINLRIGTAAENELETLHAKPRSKKTLLSHPDLIGIFKAAIKSGKTYGTYYAVSDNKGRPWSIDSAIRELGYRPQVSASDILDED | failed |
| MKKYILIGLGGAIGAILRCFIRNTKIPVYKGEFPISTLMINLSGAFILAVILITANEIWSFNEEIRLGIATGFVGAYTTFSTMCKETIILMNKNLYFLAFCYVTVSVVFGLLFAYFGALSARKILSRLLKVRKEDEKAS | failed |
| MKKYLDKLQNMPIGISGTCLAFITLSNSWNLKGINYFKPIAIFLAVCMLSLMILRLIRFPKVMYEELKNPVTGTFYPTMGMVVWLVSGFFYPYFPVVCSWLWIAAVIYHYGIVIFYTIIRIKERKFENIMPTCFIVYTGMITGSVASKGMDGVIPQIPQIAHFMLMFGFIFYTILLPLVLYIVFKSEILDDHKLPTVGIICSPAPLGVVGILTIEPNPNPYMLAWLIITGLILLVVVYGYILKLFKEGFKPSYAAFTFPLAIATLSAFKLSTYFTGLGYAKMANLFKFLGDVEIFIATYVIFFMLLNFLNMFFKAISPKLGEYVEEEEELIGGTLYSK | failed |
| MKLAKKMILAAAVLPLTLGTTAALAYGGHGWDKEGDGHCGDRGERGIWKQLDLTAEQQAQLKEMREAGREEMRANRGQSHDAMKALHAQERALVLAADFDQAAAENLAKQMVDQQVTHRVKMMEKRHQMMSILTAEQKAKLQTLQQEKMAECMQDGQHGKGKKHASQLEHHHHHH | not failed |
| MKLAYWMYAGPAHIGTLRISSSFRNVHAIMHAPLGDDYFNVMRSMLERERNFTPVTTSVVDRNVLARGSQEKVIDNILRKDTEERPDLIVLTPTCTSSILQEDLQNFVERAKESAQCDVLLADVNHYRVNELQAADRTLEQIVRFYLDRAQRQGTLPSQRTEQPSVNILGMTTLGFHNRHDTTELQRLMADLGITVNAVIPAGASVEELQHLPRAWFNLVPYREVGLLTAQYLQDTFDQPMVAIAPMGITATADCIRQIQQVLNQQGAAVDFEPFIDRQTRFASEAAWFSHSIDCQNLTGKRAVVFGDNTHAAAFTKILSREMGIHVVLAGTYCKHDADWFEAEVAGYCDRVLISDDHNAIADAIAELEPAAIFGTQMERHVGKRLNIPCGVIAAPVHIQNFPVGYRPFVGYEGANQIVDLVYNSFTLGMEDHLLEIFGGHDTKEVLTKTVSAGSDLDWKPDGLTELNRIPGFVRGKVKRNTEKYAREQGLTAITAEVLYAAKEALGALEHHHHHH | not failed |
| MKLDEIARLAGVSRTTASYVINGKAKQYRVSDKTVEKVMAVVREHNYHPNAVAAGLRAGRTRSIGLVIPDLENTSYTRIANYLERQARQRGYQLLIACSEDQPDNEMRCIEHLLQRQVDAIIVSTSLPPEHPFYQRWANDPFPIVALDRALDREHFTSVVGADQDDAEMLAEELRKFPAETVLYLGALPELSVSFLREQGFRTAWKDDPREVHFLYANSYEREAAAQLFEKWLETHPMPQALFTTSFALLQGVMDVTLRRDGKLPSDLAIATFG | failed |
| MKLFTTALFAIAFGIVIGLSFPSLWITEIWEPSNPRGAERLPSGIIASESDLYLRRLWGNPDEDLVKQPRYLATFTVGYNQRHNIDACVSKFSENFTIVLFHYDGVTSAWNDEFEWSRNAIHISVKKQTKWWYAKRFLHPDIVARYDYIFIWDEDLGVDHFNAEEYIHIVKKHDLEISQPGLDPETGFNWQITKRREHSEVHKETDEKLDWCSNPPRPPCAAFVEIMAPVFSRDAWRCVWHMIQNDLVHGWGLDFALRRCVEEPAFEKIGIVDSQWIVHQFIPSLGNQGKADNGKAPWQGVRDRCQMEWKMFENRVEAAEKDYFRSLQVESPSNSTTSH | failed |
| MKLGIGKIKDVLKSGAGKSTESGREEQKIEEIEPDRVEEATMTAKISEQESENTPDKEHLVPMNRTECKKTGLIFFPAFDWAISPTHPEREERLLYTRDQIFEEGLMDLPQIAEYKPRLAEFKDIARVHFCIPDIEAQATTPHLIAAGSCLVLADALMRGEVKNAFALVRPPGHHAMTVAHGNRGFCNINNEAILVEYLRKKYGIRRIAIVDTDVHHGDGTQEIFYNDPDILFISFHQDGRTLYPGSGFTNELGGPKALGRTINIPLPPGTPDEGILYVLDSLVMPILEDFKPELVLNSAGQDNHYTDPLANMRFSAQGYAKLNEKLGPDMAVLEGGYAIQSALPYVNTGIILAMAGLDYSCVMEPDFKPGMFVQAARDRQILEGVVATQLENWKNRNRLVEEEIAKHGDFYRRKKQIFYDTDMIQEVQEETIKMCPDCQGYVTIDSRAHRSINDTRIFGVSVPIYACNRCQAEAEEEYKKRLKSPEYEYVYLQDKKADEYRAYNMRTKQEIVY | failed |
| MKLGKTLAISCISMLSLSIWTQQVSAASAFDPSSEWMLGDWNGERTALKQKGYDFSIGYTGEMATVLDSKDTSRHGTEYAGQVALGTHFDLNKILGWQDTEAQITLTHRDGHDIKNKAAALEGQLSSTQEVYGRGQTTRLTDLWIKKKFFDQALDIKVGRFGESEDFNPAACDFQNLALCGDQMGNWNAGDQIHNWPVSQWAARVKYNVTPEVFAQVGVYEYNPENLKRSKGFNLSTDGSKGAVIPVEVVWQPKSGLINGLAGEYRAGYYYSTADANEINSTNKDHGQGGWLSFIQQLTAVNGDTSRGLKVVGQATFFDEATSRVKNTQSLAFAYKGLVDTRPKDELAIGFSRINLNDDAYLGKDVDSEYNSEIYYGIEATNWLTVRPNVQYVRHVGALKDGNNAWVGGIKFQTVF | failed |
| MKLIASNKKAYFDYEILETLEAGLALLGSEVKALRQTRVNLKDNFVKIIKGEAFLFGVHISYLDTIHAYYKPNERRERKLLLHKKQLLKWQIEASKERLSIVGLKLYFNQRNRAKIQIALVKGKRLHDKRQSLKEKALNKEILADLKHHFKG | failed |
| MKLIRVTLFLCALAILLLVTPTSSLQLKHPYSSPSQGLSKKIVTKMATRKLMIISSEYVMTSTSHEGSSEQLRVTSSGKSKDEEKKLSEEEEEKKALAKYLSMDYRTFRRRRPVHNKALPLDP | failed |
| MKLITKEVRIGIAGVAALCLLVFGINYLKGINMFKPASYFYVKFHNVNGLAQSSPVFADGVRVGIVRDIAYDYNQPENVIVEVEVDTDLRIPKGSSAELVPELMGGVRMNILLANNPRERYTVGDTIPGTLNNGMMEKVAAMMPAVEKMLPKLDSILTSLNTIMADQSIPATLHSIEKTTANLEVTSRQLKVLMNNDIPQLTGKLNTIGDNFVVISGNLKEIDYAATFKKIDTTLSNVKMLTEKLNSKDNTVGLLLNDPQLYNNLNQTTINAANLLEDLKEHPKRYVHFSLFGKKDKLEHHHHHH | failed |
| MKLIWSPETASKAYIDTVKSCENLGTPGAAELVAAMAAGWNANLIVETWSEGETIAISVGLNIASRHTNGRHICIVPNARSQTAYLQAMAEQSCSNLPETIIMNEEGEELEHTMQTLQGIDFLVVDWDQKDFAANVLRNAVFGSRGAVVVCRSGYRRSTSCFSWTKAFSDRNVVRTVTLPVSGGLEIAHVAAARSSGKSDNNSNKRKWIKHFDQRSGEEHVIRK | failed |
| MKLKDDPDIIRWINSRPRQALFASVAMVISTMSIGLFKGFDMWTADFFIFSCLLIGFGLLVGWLQKIYYKKVIFEENSDR | failed |
| MKLKKRKVAAALLKRFTLPLLFTTGSLGAVTYEVHGDFINFAKVGFNHSPINPVKGIYPTETFVNLTGKLEGSVHLGRGWTVNLGGVLGGQAYDGTKYDRWAKDFTPPSYWDKTSCGTDSMSLCMNATKMWQQSGPGGVINPRGIGWEYMGEWNGLFPNYYPANAYLPGGSRRYQVYKANLTYDSDRVHMVMGRFDITEQEQMDWIYQLFQGFYGTFKLTKNMKFLLFSGWGRGIADGQWLFPIYREKPWGVHKAGIIYRPTKNLMIHPYVYLIPMVGTLPGAKIEYDTNPEFSGRGIRNRTTFYALYDYRWNNAEYGRYAPARYNTWDPFLDNGKWRGLQGPGGATLLLRHHIDINNYFVVGGAYLNIGNPNMNLGTWGNPVAVDGIEQWVGSIYSLGFAGIDNITDADAFTEYVKGGGKHGKFSWSVYQRFTTAPRALEYGIGMYLDYQFSKHVKAGLKLVWLEFQIRAGYNPGTGFLGPNGQPLNLNTGLFESSAFAQGPQNMGGIAKSITQDRSHLMTHISYSF | failed |
